Test results: patent US20180009889A1 (Novartis, published 2018)
Positions count from the first letter of the chain named.

Tests used:
[1] = molecular target: T1, ICD3 of MDA-MB468 cells (frame-shift mutation at amino acid 2034, premature stop) (human); assay: Western blot of MDA-MB468 cell lysates
T1 construct: also called smaller ICD3; faster migrating ICD3
T1 chain: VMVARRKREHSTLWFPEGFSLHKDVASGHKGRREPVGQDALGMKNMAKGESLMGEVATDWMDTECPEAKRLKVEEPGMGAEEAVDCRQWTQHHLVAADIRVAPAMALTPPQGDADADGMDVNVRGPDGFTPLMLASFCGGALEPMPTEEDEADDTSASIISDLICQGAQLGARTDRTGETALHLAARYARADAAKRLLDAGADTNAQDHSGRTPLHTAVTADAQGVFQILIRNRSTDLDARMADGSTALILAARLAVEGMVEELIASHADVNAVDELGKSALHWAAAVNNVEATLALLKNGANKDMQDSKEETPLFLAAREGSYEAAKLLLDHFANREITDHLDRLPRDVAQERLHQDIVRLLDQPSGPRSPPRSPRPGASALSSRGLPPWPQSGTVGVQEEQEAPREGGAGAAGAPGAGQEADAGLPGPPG

[2] = molecular target: T2, Notch1 intracellular domain (ICD1) (UniProt P46531 1754-2555); assay: Western blot of lysates of T-cell acute lymphoblastic leukemia cell lines
T2 construct: domain: Notch1 intracellular domain (ICD1)
T2 sequence (P46531 1754-2555 limits assumed): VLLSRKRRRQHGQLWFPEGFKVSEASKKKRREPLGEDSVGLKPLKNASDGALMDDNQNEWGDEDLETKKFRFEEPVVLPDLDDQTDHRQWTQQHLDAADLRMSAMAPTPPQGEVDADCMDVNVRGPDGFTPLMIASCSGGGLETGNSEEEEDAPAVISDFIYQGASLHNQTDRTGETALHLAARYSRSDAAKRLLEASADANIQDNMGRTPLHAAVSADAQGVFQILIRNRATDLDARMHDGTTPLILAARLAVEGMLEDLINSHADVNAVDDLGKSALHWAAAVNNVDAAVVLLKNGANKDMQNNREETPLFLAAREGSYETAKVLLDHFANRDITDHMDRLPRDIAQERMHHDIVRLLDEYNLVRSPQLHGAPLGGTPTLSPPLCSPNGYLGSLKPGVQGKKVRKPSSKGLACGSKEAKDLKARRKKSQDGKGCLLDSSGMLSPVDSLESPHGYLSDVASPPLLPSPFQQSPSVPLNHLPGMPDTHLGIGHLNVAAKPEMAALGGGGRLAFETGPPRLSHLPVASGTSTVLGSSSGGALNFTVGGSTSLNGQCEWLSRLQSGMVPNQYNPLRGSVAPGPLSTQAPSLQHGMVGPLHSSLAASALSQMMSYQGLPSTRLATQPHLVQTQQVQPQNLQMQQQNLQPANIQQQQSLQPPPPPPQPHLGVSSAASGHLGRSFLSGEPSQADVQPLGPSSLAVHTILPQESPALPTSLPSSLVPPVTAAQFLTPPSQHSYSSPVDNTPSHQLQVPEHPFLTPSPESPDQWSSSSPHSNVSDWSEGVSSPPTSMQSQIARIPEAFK

[3] = molecular target: T3, Gamma secretase cleaved form of the Notch3 intracellular domain (ICD3) (human, UniProt Q9UM47 1662-2321); assay: Western blot of TALL-1 cell lysates with hybridoma sub-clone supernatant
T3 construct: also called Notch3 ICD
T3 sequence: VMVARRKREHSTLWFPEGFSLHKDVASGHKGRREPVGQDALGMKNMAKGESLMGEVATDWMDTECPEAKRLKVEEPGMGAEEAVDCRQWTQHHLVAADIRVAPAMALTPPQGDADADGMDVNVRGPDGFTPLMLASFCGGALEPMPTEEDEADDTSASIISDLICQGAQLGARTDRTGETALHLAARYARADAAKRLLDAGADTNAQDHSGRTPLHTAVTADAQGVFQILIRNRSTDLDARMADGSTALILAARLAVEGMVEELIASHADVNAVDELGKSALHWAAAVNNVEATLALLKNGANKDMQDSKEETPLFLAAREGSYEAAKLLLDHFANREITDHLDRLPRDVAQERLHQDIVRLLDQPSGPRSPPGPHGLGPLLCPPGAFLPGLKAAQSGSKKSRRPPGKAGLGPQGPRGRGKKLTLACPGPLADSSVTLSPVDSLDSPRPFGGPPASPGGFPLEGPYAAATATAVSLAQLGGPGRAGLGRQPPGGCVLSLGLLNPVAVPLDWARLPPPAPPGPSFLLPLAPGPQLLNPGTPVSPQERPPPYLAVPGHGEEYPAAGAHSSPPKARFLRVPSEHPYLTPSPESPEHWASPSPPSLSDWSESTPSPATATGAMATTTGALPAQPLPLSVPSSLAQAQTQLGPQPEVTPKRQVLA

Human Notch3-Gal4-VP16 [4] = molecular target: Human Notch3-Gal4-VP16 (human); assay: cell-based or functional assay
EGF32 NRR (cyno) [5] = molecular target: T4, EGF32 NRR (cyno) (cynomolgus monkey); assay: Biacore (SPR); set-up not stated on the sheet
T4 construct: recombinant, C-terminal six histidine tag

EGF32 NRR (cyno) [6] = molecular target: T4, EGF32 NRR (cyno); assay: ELISA: IgG titrated on directly coated recombinant antigen
EGF32 NRR (human) [7] = assay: Biacore (SPR); set-up not stated on the sheet
EGF32 NRR (mouse) [8] = molecular target: T5, EGF32 NRR (mouse) (mouse, UniProt Q61982); assay: Biacore (SPR); set-up not stated on the sheet
T5 construct: recombinant, C-terminal six histidine tag

EGF32 NRR (human) [9] = assay: ELISA: IgG titrated on directly coated recombinant antigen
EGF32 NRR (mouse) [10] = molecular target: T5, EGF32 NRR (mouse); assay: as above
[11] = molecular target: T6, Human Notch 3 (wild type) (human, UniProt Q9UM47 40-2321); assay: FACS on U2OS_N3 cells, with U2OS_parental cells as control
T6 construct: also called Notch 3 receptor

EGF32 NRR (cyno) [12] = molecular target: T4, EGF32 NRR (cyno); assay: ELISA: IgG titrated on directly coated recombinant antigen; remark: listed apart in the source
[13] = molecular target: T7, Human Notch3 Negative Regulatory Region (NRR), residues 1378 to 1640 of human Notch3, with C-terminal His tag (human, UniProt Q9UM47 1378-1640); assay: HDx-MS without Ca2+, IgG with Notch 3 NRR
T7 construct: also called Notch3 NRR; Notch 3 NRR

Human Notch3-Gal4-VP16 [14] = molecular target: Human Notch3-Gal4-VP16 (human); assay: cell-based or functional assay; remark: listed apart in the source
Human Notch3-Gal4-VP16 [15] = molecular target: Human Notch3-Gal4-VP16 (human); assay: cell-based or functional assay; remark: listed apart in the source
cyno LBD [16] = molecular target: T8, cyno LBD; assay: Biacore (SPR); set-up not stated on the sheet
T8 construct: also called N3_EGF4-11_Fc cyno

[17] = molecular target: T6, Human Notch 3 (wild type); assay: FACS on U2OS_N3 cells (U2OS over-expressing human Notch3)
cyno LBD [18] = molecular target: T8, cyno LBD; assay: ELISA: IgG titrated on directly coated recombinant antigen
cyno LBD [19] = molecular target: T8, cyno LBD; assay: as above; remark: listed apart in the source

B1: ICD3 Ab (antibody, V domains shown)
VH: QSLEESGGDLVKPGASLTLTCTASGFSFTKNAYMCWDRQAPGKRPEWIACIETGDGTTYYASWAKGRFTVSKTSSTTVTLQMTSLTAADTATYFCARELYDDYGDYFNLWGPGTLVTVSS
VL: ALVMTQTPSSVSAAVGGTVTINCQTSENFYSNDILSWYQQKPGQPPKLLIYEASTLASGVPSRFKGSGSGTQFTLTISDVQCDDAATYYCQGSVLDSGWYDISFGGGTEVVVKG
notes: also called ICD3 antibody
binding result [1]: binds | binding result [2]: no binding (tested: 1:5000 dilution) | binding result [3]: binds

B2: 20345 (antibody, human IgG1, kappa, V domains shown)
VH: QVQLVQSGAEVKKPGSSVKVSCKASGGTFSSYTISWVRQAPGQGLEWMGWIKPKLGMAHYAQKFQGRVTITADESTSTAYMELSSLRSEDTAVYYCARGSFWFGYWGQGTLVTVSS
VL: DIQMTQSPSSLSASVGDRVTITCRASQGINNYLNWYQQKPGKAPKLLIYDASKLQSGVPSRFSGSGSGTDFTLTISSLQPEDFATYYCQQYLQYPMTFGQGTKVEIKR
% inhibition, Delta 1 co-culture Notch3 reporter gene assay (Human Notch3-Gal4-VP16 [4]): 19% | % inhibition, Jagged1 co-culture Notch3 reporter gene assay (Human Notch3-Gal4-VP16 [4]): -88% | IC50, Delta 1 co-culture Notch3 reporter gene assay (Human Notch3-Gal4-VP16 [4]): 300 pM | IC50, Jagged1 co-culture Notch3 reporter gene assay (Human Notch3-Gal4-VP16 [4]): 400 pM | Kd (EGF32 NRR (cyno) [5]): 700 pM | EC50 (EGF32 NRR (cyno) [6]): 600 pM

B3: 12225 (antibody, human IgG1, kappa, V domains shown)
VH: B2 VH with K54A, L55F, M57T, H59N
VL: B2 VL
notes: also called MOR 12225
% inhibition, Delta 1 co-culture Notch3 reporter gene assay (Human Notch3-Gal4-VP16 [4]): -8% | % inhibition, Jagged1 co-culture Notch3 reporter gene assay (Human Notch3-Gal4-VP16 [4]): -165% | IC50, Jagged1 co-culture Notch3 reporter gene assay (Human Notch3-Gal4-VP16 [4]): 5800 pM | Kd (EGF32 NRR (cyno) [5]): 2700 pM | EC50 (EGF32 NRR (cyno) [6]): 900 pM

B4: 20350 (antibody, human IgG1, kappa, V domains shown)
VH: B2 VH with K54R, L55W, M57A
VL: B2 VL
Kd (EGF32 NRR (cyno) [5]): 300 pM | EC50 (EGF32 NRR (cyno) [6]): 1400 pM

B5: 20351 (antibody, human IgG1, kappa, V domains shown)
VH: B2 VH with K54R, L55Y, M57A, H59M
VL: B2 VL
% inhibition, Delta 1 co-culture Notch3 reporter gene assay (Human Notch3-Gal4-VP16 [4]): 30% | % inhibition, Jagged1 co-culture Notch3 reporter gene assay (Human Notch3-Gal4-VP16 [4]): -50% | IC50, Delta 1 co-culture Notch3 reporter gene assay (Human Notch3-Gal4-VP16 [4]): 1400 pM | IC50, Jagged1 co-culture Notch3 reporter gene assay (Human Notch3-Gal4-VP16 [4]): 800 pM | Kd (EGF32 NRR (cyno) [5]): 1200 pM | EC50 (EGF32 NRR (cyno) [6]): 800 pM

B6: 12215 (antibody, human IgG1, kappa, V domains shown)
VH: QVQLVESGGGLVKPGGSLRLSCAASGFTFSTYVMHWVRQAPGKGLEWVGRIRSNTYGGITDYAAPVKGRFTISRDDSKNTLYLQMNSLKTEDTAVYYCARAEARYRDVWGQGTLVTVSS
VL: DIQMTQSPSSLSASVGDRVTITCRASQSISSHLNWYQQKPGKAPKLLIYAASNLQSGVPSRFSGSGSGTDFTLTISSLQPEDFATYYCQQDYHTPFTFGQGTKVEIKR
notes: also called MOR 12215
% inhibition, Delta 1 co-culture Notch3 reporter gene assay (Human Notch3-Gal4-VP16 [4]): -1% | % inhibition, Jagged1 co-culture Notch3 reporter gene assay (Human Notch3-Gal4-VP16 [4]): -5% | Kd (EGF32 NRR (human) [7]): 900 pM | Kd (EGF32 NRR (cyno) [5]): 2700 pM | Kd (EGF32 NRR (mouse) [8]): 1000 pM | EC50 (EGF32 NRR (human) [9]): 900 pM | EC50 (EGF32 NRR (cyno) [6]): 600 pM | EC50 (EGF32 NRR (mouse) [10]): 2200 pM | EC50 (read off the curve) [11]: ~500 pM

B7: 20358 (antibody, human IgG1, kappa, V domains shown)
VH: QVQLVQSGAEVKKPGSSVKVSCKASGGTFRTYAMHWVRQAPGQGLEWMGGIVPYHGITDYAQKFQGRVTITADESTSTAYMELSSLRSEDTAVYYCARDDYSTYAFAYWGQGTLVTVSS
VL: B6 VL with S30A, H32Y, N34A, A50D, D91A, H93K, F96Y
Kd (EGF32 NRR (cyno) [5]): 2700 pM | Kd (EGF32 NRR (mouse) [8]): 70000 pM | EC50 (EGF32 NRR (cyno) [6]): 500 pM

B8: 12981 (antibody, human IgG1, kappa, V domains shown)
VH: B7 VH with V52I, Y54I, H55F, T58A, D59N
VL: B6 VL with S30A, H32Y, N34A, A50D, D91A, H93K, F96Y
notes: also called MOR 12981
% inhibition, Delta 1 co-culture Notch3 reporter gene assay (Human Notch3-Gal4-VP16 [4]): 16% | % inhibition, Jagged1 co-culture Notch3 reporter gene assay (Human Notch3-Gal4-VP16 [4]): 56% | IC50, Delta 1 co-culture Notch3 reporter gene assay (Human Notch3-Gal4-VP16 [4]): 22000 pM | IC50, Jagged1 co-culture Notch3 reporter gene assay (Human Notch3-Gal4-VP16 [4]): 200 pM | Kd (EGF32 NRR (cyno) [5]): 19000 pM | EC50 (EGF32 NRR (cyno) [6]): 400 pM | EC50 (read off the curve) (EGF32 NRR (cyno) [12]): ~600 pM

B9: 20337 (antibody, human IgG1, kappa, V domains shown)
VH: B6 VH with S53A, T55A, I59A, T60A
VL: B6 VL
% inhibition, Delta 1 co-culture Notch3 reporter gene assay (Human Notch3-Gal4-VP16 [4]): 18% | % inhibition, Jagged1 co-culture Notch3 reporter gene assay (Human Notch3-Gal4-VP16 [4]): 60% | IC50, Delta 1 co-culture Notch3 reporter gene assay (Human Notch3-Gal4-VP16 [4]): 6400 pM | IC50, Jagged1 co-culture Notch3 reporter gene assay (Human Notch3-Gal4-VP16 [4]): 4600 pM | binding result [13]: binds | Kd (EGF32 NRR (human) [7]): 500 pM | Kd (EGF32 NRR (cyno) [5]): 400 pM | Kd (EGF32 NRR (mouse) [8]): 4400 pM | EC50 (EGF32 NRR (human) [9]): 800 pM | EC50 (EGF32 NRR (cyno) [6]): 600 pM | EC50 (EGF32 NRR (mouse) [10]): 700 pM

B10: 12229 (antibody, human IgG1, lambda, V domains shown)
VH: QVQLVESGGGLVKPGGSLRLSCAASGFTFSSYTMNWVRQAPGKGLEWVGRIKTKTNGGTTDYAAPVKGRFTISRDDSKNTLYLQMNSLKTEDTAVYYCARERSRAGSIFDPWGQGTLVTVSS
VL: DIVLTQPPSVSGAPGQRVTISCSGSSSNIGFNYVSWYQQLPGTAPKLLIYYNNQRPSGVPDRFSGSKSGTSASLAITGLQAEDEADYYCSTWTGTSESHVFGGGTKLTVLG
% inhibition, Delta 1 co-culture Notch3 reporter gene assay (Human Notch3-Gal4-VP16 [4]): 85% | % inhibition, Jagged1 co-culture Notch3 reporter gene assay (Human Notch3-Gal4-VP16 [4]): 77% | IC50, Delta 1 co-culture Notch3 reporter gene assay (Human Notch3-Gal4-VP16 [4]): 5500 pM | IC50, Jagged1 co-culture Notch3 reporter gene assay (Human Notch3-Gal4-VP16 [4]): 700 pM | IC50 (read off the curve), Delta1 co-culture reporter gene assay (Human Notch3-Gal4-VP16 [14]): ~5000 pM | IC50 (read off the curve), Jagged1 co-culture reporter gene assay (Human Notch3-Gal4-VP16 [15]): ~800 pM | Kd (cyno LBD [16]): 24000 pM | binding result [17]: binds | EC50 (cyno LBD [18]): 500 pM | EC50 (read off the curve) (cyno LBD [19]): ~300 pM
